Assay [1] addresses human ErbB2 on BT474 human breast tumor cells (human) (UniProt P04626). Description: Scatchard analysis, 125I-labelled antibody on BT474 cell monolayers, 4 hours on ice.
For assay [2] the target is unchanged. The assay can be described thus: cell-based or functional assay.

The Kd is the free concentration of one partner at which half of the binding sites on the other are occupied at equilibrium, for simple one-to-one binding. A low value points to higher affinity. Take “anti-ErbB2 IgG1κ murine monoclonal antibody 4D5”: the Kd in assay [1] was determined as 6.5 nM. For the same substance, in assay [2], the % apoptosis of the BT474 cell population turned out to be 41.9% and the proportion of S-phase cells (BT474) stood at 5.4%.
In the case of “anti-ErbB2 IgG1κ murine monoclonal antibody 7C2”, in assay [2], the % apoptosis of the BT474 cell population is 60.5% and the proportion of S-phase cells (BT474) stood at 64.9%.

The record behind these values is patent publication US20170190786A1.
